Data taken from PMC9814790.
Where no end group is shown, it is not given here. Me3 = trimethyl (trimethylated lysine, Kme3)

What was measured:
Assay in all cases: ITC; H3K4me3 peptide (380 uM) titrated to KDM5A PHD3 fingers (28 uM); for AUX WT-KDM5A 190 uM peptide and 21 uM protein; 20 mM TRIS-HCl pH 7.5, 50 mM NaCl, 1 mM DTT; 19 injections; one set of sites model; 7-9 repeats (AUX WT in replicate)
[1] = target: KDM5A PHD3 finger with 5,6-difluorotryptophan at Trp18 and Trp28 (Homo sapiens) (UniProt P29375)
[2] = target: KDM5A PHD3 finger with 5-fluorotryptophan at Trp18 and Trp28 (Homo sapiens) (UniProt P29375)
[3] = target: KDM5A PHD3 finger with 6-fluorotryptophan at Trp18 and Trp28 (Homo sapiens) (UniProt P29375)
[4] = target: wild-type KDM5A PHD3 finger expressed in E. coli Rosetta BL21 (DE3)pLysS (Homo sapiens) (UniProt P29375)
[5] = target: wild-type KDM5A PHD3 finger expressed in the auxotrophic E. coli Castellani and Chalmers strain (Homo sapiens) (UniProt P29375)

- Kd [1]: 70 nM
- dH [1]: -11.7 kcal/mol
- Kd [2]: 49 nM
- dH [2]: -10.9 kcal/mol
- Kd [3]: 57 nM
- dH [3]: -12.1 kcal/mol
- Kd [4]: 54 nM
- dH [4]: -11.6 kcal/mol
- Kd [5]: 48 nM
- dH [5]: -11.9 kcal/mol
Binder: ARTK(Me3)QTARKS [H3K4me3 histone peptide (ARTKme3QTARKS)]
